According to patent US20240358767A1, “STEM CELL DIFFERENTIATION AND CHEMICAL COMPOUNDS” (VERTEX PHARMACEUTICALS INCORPORATED, priority 2021, published 2024):
“And” between values parts separate entries of the source, which are not always exact repeats. Equal values may be shown once.

Legend:
Type in all cases: cell-based
[1] = test system: human stem cells; assay: Stage 1 differentiation of stem cells (Version A protocol), flow cytometry of Oct4 and Sox17 at completion of Stage 1 (S1C)
Protocol: (§1) An exemplary base differentiation protocol, Version A, according to the present disclosure, was used for differentiating human stem cells into mature β cells capable of releasing insulin in response to glucose challenge in vitro.
(§2) Version A protocol is a 6-stage stepwise protocol. With Version A protocol, stem cells were treated with reagents in a manner similar to the Version A described in Example 1 of U.S. Patent Publication No. US20220090020A1, which is incorporated by reference herein in its entirety. In some experiments, Version A was modified such that 100 ng/mL Activin A at Stage 1 was replaced with a different concentration of Activin A as described below.
(§3) In one experiment, differentiation of the stem cells was initiated in spinner flasks using Version A protocol, and three different concentrations of Activin A (“AA”), 100 ng/mL (100%), 10 ng/mL (10%), and 5 ng/mL (5%), applied throughout the three days of Stage 1 were tested, while the remaining differentiation steps were kept the same. On QC days, e.g., upon completion of Stage 1 (“S1C”), completion of Stage 3 (“S3C”), or completion of Stage 5 (“S5C”), the cells were examined for their morphology and cell constituents. Specifically, 5 mL of cell cluster suspension solution were taken from the spinner flask, with 1 mL suspension aliquoted into a 24 well plate. Pictures of the cell clusters in the 24-well plate were taken under brightfield microscope. The cell clusters in the remaining 4 mL suspension were dispersed with TrypLE Express (Life Technologies; 12,604,013) at 37° C. for 20 min, fixed with 4% PFA for 20 mins at 4° C., blocked for 1 hour in FACS buffer (5% Donkey Serum and 0.05% Triton-100 in PBS) at room temperature, and stained with various antibodies against cell markers. Stained cells were then measured using an Accuri 6 flow cytometer (BD Biosciences) and analyzed using FlowJo software.
In another experiment, a dose-response test was conducted to examine the effects of different concentrations of Activin A at Stage 1 on stem cell differentiation. Five different concentrations of Activin A were tested: 100 ng/mL (100%), 20 ng/mL (20%), 10 ng/mL (10%), 5 ng/mL (5%), and 0 ng/mL (0%).
(§4) In one experiment, four different conditions for Stage 1 differentiation were tested: 100% Activin A, 10% Activin A, 10% Activin A plus GSK-690693 (“GSK”), or 10% Activin A plus BYL719 (“BYL”). Characterization of cell morphology and cell constituents were conducted similarly as described in EXAMPLE 1. The experiment was repeated for four times. Table 3 summarizes the quantification of flow cytometry analysis results at S1C, S3C, and S5C, and total viable cell yield at S5C for the four runs. In all the four runs, 0.1 μM […] or 0.04 μM BYL719 was applied for 3 days of Stage 1, except that in the last two runs, Run 4 and Run 5, 0.04 μM of BYL719 was applied for only 2 days (days S1d1 and S1d2).
(§5) In one experiment, six different conditions for Stage 1 differentiation were tested: 100% Activin A, 10% Activin A, 10% Activin A plus GSK-690693, 10% Activin A plus BYL719, 10% Activin A plus GSK-690693 and BYL719, or 100% Activin A plus GSK-690693 and BYL719. Characterization of cell morphology and cell constituents were conducted similarly as described in EXAMPLE 1. FIGS. 2A-5E and Table 4 summarize the characterizations of the cells obtained under the six differentiation conditions at different stages.

[2] = test system: human stem cells; assay: Total viable cell yield at S5C; settings: 10% AA (10 ng/mL Activin A) at Stage 1, Runs 4-5, listed as AA
Protocol: as §1, §2, §4

[3] = test system: human stem cells; assay: Version A differentiation, flow cytometry of Nkx6.1 and Isl1 at completion of Stage 5 (S5C)
Protocol: as §1, §2, §3, §4, §5

[4] = test system: human stem cells; assay: Version A differentiation, flow cytometry of Pdx1, Cdx2 and Sox2 at completion of Stage 3 (S3C); settings: for S3C Pdx1: Runs 3-5, listed as AA
Protocol: as §1, §2, §3, §4, §5

[5] = test system: human stem cells; assay: Cell cluster morphology under brightfield microscope
Protocol: as §3

[6] = test system: human stem cells; assay: Version A differentiation, flow cytometry of Nkx6.1 and Isl1 on day 7 of Stage 6 (S6d7); settings: for S6d7 Nkx6.1 + /Isl1+: day 7 of Stage 6
Protocol: as §1, §2, §3, §5
In another experiment, the effects of the aforementioned six different conditions for Stage 1 differentiation on Stage 6 differentiation were tested under two Stage 6 medium regimens: regimen 1 (Table 5) and regimen 2 (Table 6).

[7] = 5% Activin A (5 ng/mL) throughout Stage 1
[8] = 10% AA (10 ng/mL Activin A) at Stage 1
[9] = 10% Activin A (10 ng/mL) throughout Stage 1
[10] = 100% AA (100 ng/mL Activin A) at Stage 1
[11] = 100% Activin A (100 ng/mL) throughout Stage 1
[12] = reduced concentrations of Activin A (10% or 5%) vs 100%
[13] = Stage 6 Regimen 1, 10% AA (10 ng/mL Activin A) at Stage 1
[14] = Stage 6 Regimen 1, 100% AA (100 ng/mL Activin A) at Stage 1
[15] = Stage 6 Regimen 2, 10% AA (10 ng/mL Activin A) at Stage 1
[16] = Stage 6 Regimen 2, 100% AA (100 ng/mL Activin A) at Stage 1

B1: Activin A: growth factor from the TGF-β superfamily; exemplary sequences SEQ ID NO: 1-15 in Table 1 (protein, UniProt P08476 311-426, looked up)
Inhibin beta A chain: GLECDGKVNICCKKQFFVSFKDIGWNDWIIAPSGYHANYCEGECPSHIAGTSGSSLSFHSTVINHYRMRGHSPFANLKSCCVPTKLRPMSMLYYDDGQNIIKKDIQNMIVEECGCS
modifications: Inhibin beta A chain
S1c − Oct4−/Sox17+ [1, 7]: 76.4%
S1C Sox17 + /Oct4+ [1, 8]: 3.29%
S1C Sox17+/Oct4− [1, 8]: 87.1%
S1C Sox17+/Oct4− ([1]; 10% AA (10 ng/mL Activin A) at Stage 1, Runs 2-5, listed as AA): 61.6 and 80.5 and 87.1 and 73.8
S1c − Oct4−/Sox17+ [1, 9]: 87.1%
S1C Sox17 + /Oct4+ [1, 10]: 3.41%
S1C Sox17+/Oct4− [1, 10]: 79.1%
S1C Sox17+/Oct4− ([1]; 100% AA (100 ng/mL Activin A) at Stage 1, Runs 2-5, listed as AA): 78.2 and 88.2 and 79.1 and 84.5
S1c − Oct4−/Sox17+ [1, 11]: 79.1%
percentage of Oct4-negative, Sox17-positive cells at S1C ([1]; among 100%, 10% and 5% Activin A): not significant difference
percentage of Sox17−/Oct4+ cells at S1C ([1]; dose-response test, 100% Activin A (100 ng/mL) at Stage 1): under 1%
percentage of Sox17−/Oct4+ cells at S1C ([1]; dose-response test, Activin A reduced from 100% to 20%, 10%, or 5%): did not change significantly
percentage of double negative cells (Sox17-negative, Oct4-negative) at S1C ([1]; dose-response test, reduced Activin A (20%, 10%, and 5%) vs 100%): increase
St5C yield [2]: 2.56e+06 mL⁻¹ and 4.1968e+06 mL⁻¹
percentage of Nkx6.1-positive cells at S5C ([3]; 5% Activin A): reduced percentage
S5c − Nkx6.1+/Isl1+ [3, 7]: 25.9%
S5c − Nkx6.1+/Isl1− [3, 7]: 25.3%
S5C Nkx6.1+/Isl1+ [3, 8]: 32.9%
S5C Nkx6.1+/Isl1+ ([3]; 10% AA (10 ng/mL Activin A) at Stage 1, Runs 3-5, listed as AA): 25.2 and 38.7 and 32.9
S5c − Nkx6.1+/Isl1+ [3, 9]: 32.9%
S5c − Nkx6.1+/Isl1− [3, 9]: 49.5%
S5c − Nkx6.1+/Isl1− ([3]; 10% Activin A (10 ng/mL) throughout Stage 1, listed as AA): 49.5%
S5C Nkx6.1+/Isl1+ [3, 10]: 32.6%
S5C Nkx6.1+/Isl1+ ([3]; 100% AA (100 ng/mL Activin A) at Stage 1, Runs 3-5, listed as AA): 31.5 and 36.6 and 32.6
S5c − Nkx6.1+/Isl1+ [3, 11]: 32.6%
S5c − Nkx6.1+/Isl1− [3, 11]: 41.1%
S5c − Nkx6.1+/Isl1− ([3]; 100% Activin A (100 ng/mL) throughout Stage 1, listed as AA): 41.1%
S3c − Cdx2+/Pdx1+ [4, 7]: 27.0%
S3c− Sox2+/Pdx1+ [4, 7]: 9.76%
S3c − Cdx2+/Pdx1− ([4]; 5% Activin A (5 ng/mL) throughout Stage 1, first line with this head (r7)): 6.22%
S3c − Cdx2+/Pdx1− ([4]; 5% Activin A (5 ng/mL) throughout Stage 1, second line with this head (r9)): 3.63%
S3C Pdx1 + /Cdx2+ [4, 8]: 32.7%
S3C Pdx1 + /Sox2+ [4, 8]: 3.89%
S3C Pdx1 [4, 8]: 56.9 and 93.3 and 75.8
S3c − Cdx2+/Pdx1+ [4, 9]: 32.7%
S3c− Sox2+/Pdx1+ [4, 9]: 3.89%
S3c − Cdx2+/Pdx1− ([4]; 10% Activin A (10 ng/mL) throughout Stage 1, first line with this head (r7)): 1.28%
S3c − Cdx2+/Pdx1− ([4]; 10% Activin A (10 ng/mL) throughout Stage 1, second line with this head (r9)): 1.90%
S3C Pdx1 + /Cdx2+ [4, 10]: 3.21%
S3C Pdx1 + /Sox2+ [4, 10]: 38.8%
S3C Pdx1 [4, 10]: 72.7 and 95.3 and 84.61
S3c − Cdx2+/Pdx1+ [4, 11]: 3.21%
S3c− Sox2+/Pdx1+ [4, 11]: 38.8%
S3c − Cdx2+/Pdx1− ([4]; 100% Activin A (100 ng/mL) throughout Stage 1, first line with this head (r7)): 0.061%
S3c − Cdx2+/Pdx1− ([4]; 100% Activin A (100 ng/mL) throughout Stage 1, second line with this head (r9)): 1.29%
cells expressing Cdx2 at S3C [4, 12]: more
cells expressing Sox2 at S3C [4, 12]: fewer
cell cluster morphology at completion of Stage 5 ([5]; 5% Activin A): altered morphology
cell cluster morphology at completion of Stage 3 ([5]; 10% or 5% Activin A at Stage 1 vs 100% Activin A): altered morphology
cell cluster morphology at completion of Stage 1 ([5]; 10% or 5% Activin A vs 100% Activin A, irregular shapes and rough edge): altered morphology
S6d7 Nkx6.1 + /Isl1+ [6, 8]: 35.4%
S6d7 Nkx6.1 + /Isl1+ [6, 10]: 37.3%
Markers on S6d7 Isl1 + /Nkx6.1+ [6, 13]: 35.4
Markers on S6d7 Isl1 + /Nkx6.1− [6, 13]: 5.34
Markers on S6d7 Isl1 + /Nkx6.1+ [6, 14]: 37.3
Markers on S6d7 Isl1 + /Nkx6.1− [6, 14]: 7.38
Markers on S6d7 Isl1 + /Nkx6.1+ [6, 15]: 34.6
Markers on S6d7 Isl1 + /Nkx6.1− [6, 15]: 5.42
Markers on S6d7 Isl1 + /Nkx6.1+ [6, 16]: 37.8
Markers on S6d7 Isl1 + /Nkx6.1− [6, 16]: 7.16
